The Human Domainome abundance scans (Beltran et al. 2025)
± gives the uncertainty stated by the source.

B1: Receptor-interacting serine/threonine-protein kinase 2, residues 438 to 518; numbered along this chain, O43353 (parent)
chain: QWIQSKREDIVNQMTEACLNQSLDALLSRDLIMKEDYELVSTKPTRTSKVRQLLDTTDIQGEEFAKVIVQKLKDNKQMGLQ

Variants of: B1
Assay: abundance fitness (aPCA) (normalised: wild type 0, dead -1); higher = more abundant; growth selection in yeast, the domain comes from the species named
Conditions: Homo sapiens

Abundance fitness, by site and new letter:
Y37: M -0.788 ± 0.2, W -0.232 ± 0.066, V -0.413 ± 0.091, I -0.401 ± 0.27
I32: K -0.94 ± 0.42, L -0.029 ± 0.055, P -0.437 ± 0.071, H -0.527 ± 0.13, V -0.373 ± 0.085, R -0.592 ± 0.071, Q -0.273 ± 0.14, C -0.679 ± 0.14, F -0.842 ± 0.23, T -0.594 ± 0.12, S -0.593 ± 0.078, A -0.686 ± 0.11, M -0.183 ± 0.11, G -0.707 ± 0.094, W -0.442 ± 0.14, E -0.731 ± 0.2
D24: S -0.19 ± 0.077, E 0.034 ± 0.33, T -0.28 ± 0.045, R -0.169 ± 0.057, V -0.434 ± 0.1, H -0.574 ± 0.16, W -0.881 ± 0.21, L -0.569 ± 0.11, F -0.779 ± 0.22, A -0.106 ± 0.084, M -0.719 ± 0.33, G -0.692 ± 0.1, Y -0.221 ± 0.22, P -0.68 ± 0.099, C -0.337 ± 0.15, K -0.328 ± 0.19
S28: D -0.36 ± 0.16, C -0.283 ± 0.13, I -0.475 ± 0.2, F -0.665 ± 0.29, M -0.259 ± 0.11, L -0.204 ± 0.065, W -0.527 ± 0.14, G -0.363 ± 0.064, K 0.095 ± 0.093, R -0.082 ± 0.062, E 0.03 ± 0.14, H -0.25 ± 0.12, Y -0.26 ± 0.1, T -0.165 ± 0.12, V -0.175 ± 0.089, Q 0.041 ± 0.11, P -0.847 ± 0.18
L26: M -0.662 ± 0.13, V -0.649 ± 0.069, H -0.289 ± 0.18, F -1.03 ± 0.25, P -0.374 ± 0.068, G -0.572 ± 0.081, R -0.425 ± 0.05, E -0.364 ± 0.11, T -0.657 ± 0.13, K -0.374 ± 0.15, S -0.419 ± 0.069, Q -0.31 ± 0.061, D -0.833 ± 0.34, C -0.618 ± 0.11, Y -0.879 ± 0.3, A -0.313 ± 0.059, W -1.02 ± 0.17
L39: C -0.379 ± 0.1, N -0.034 ± 0.17, R 0.015 ± 0.047, P -0.635 ± 0.13, K 0.119 ± 0.19, I -0.352 ± 0.11, Y -0.407 ± 0.23, G -0.34 ± 0.056, A 0.092 ± 0.08, F -0.436 ± 0.09, S -0.138 ± 0.071, V -0.199 ± 0.079, H -0.107 ± 0.081, D -0.194 ± 0.11, M -0.218 ± 0.23, W -0.815 ± 0.13, E -0.003 ± 0.14
T42: A -0.069 ± 0.075, C -0.108 ± 0.082
A25: K -0.732 ± 0.15, I -0.339 ± 0.14, E 0.183 ± 0.072, T -0.174 ± 0.075, L -0.303 ± 0.063, P -0.737 ± 0.082, F -0.052 ± 0.16, H -0.225 ± 0.16, N -0.343 ± 0.062, Q -0.43 ± 0.096, W -0.969 ± 0.17, S -0.233 ± 0.057, R -0.592 ± 0.063, V -0.133 ± 0.092, G -0.451 ± 0.067, D -0.088 ± 0.1
E38: T -0.157 ± 0.076, W -0.12 ± 0.095, C -0.719 ± 0.13, I 0.053 ± 0.15, Y -0.237 ± 0.12, K -0.216 ± 0.2, V -0.226 ± 0.1, G -0.509 ± 0.084, N -0.463 ± 0.13, S -0.375 ± 0.07, L -0.075 ± 0.076, Q -0.165 ± 0.12, A -0.129 ± 0.075, M -0.088 ± 0.25, R -0.227 ± 0.072, H -0.06 ± 0.13, F -0.221 ± 0.11
L27: R -0.157 ± 0.068, F -0.353 ± 0.19, N -0.395 ± 0.17, D -0.198 ± 0.13, C -0.668 ± 0.16, K -0.041 ± 0.13, M 0.128 ± 0.24, Q -0.293 ± 0.22, S -0.104 ± 0.075, Y -0.069 ± 0.13, G -0.609 ± 0.071, P -0.328 ± 0.07, H -0.284 ± 0.18, T -0.355 ± 0.12, V -0.067 ± 0.051, A -0.251 ± 0.088
S41: A -0.007 ± 0.064, E -0.259 ± 0.11, V 0.11 ± 0.05, K 0.158 ± 0.12, L 0.069 ± 0.054, Q 0.139 ± 0.076, W -0.466 ± 0.1, M 0.166 ± 0.047, R 0.046 ± 0.046, I 0.09 ± 0.11, G -0.295 ± 0.063, N 0.094 ± 0.099, Y -0.117 ± 0.11, D -0.448 ± 0.098, C -0.042 ± 0.07, T -0.004 ± 0.079, P -0.599 ± 0.085
Q21: L -0.319 ± 0.073, Y -0.313 ± 0.22, T -0.344 ± 0.08, S -0.141 ± 0.062, N -0.357 ± 0.2, W -1.07 ± 0.2, K -0.338 ± 0.18, P -0.793 ± 0.1, V -0.382 ± 0.085, R -0.286 ± 0.051, I -0.788 ± 0.1, M -0.736 ± 0.19
